Experimental data from article PMC4409726, “Characterization of chromosomal and megaplasmid partitioning loci in Thermus thermophilus HB27”.

Key:
ParBm = molecular target: T1, ParBm (Thermus thermophilus HB27, UniProt Q746H2 1-297); assay: EMSA; poly(dI-dC); WT competitor competes much better than mutant; 50 mM KCl, 10 mM Tris-HCl pH 7.0, 1 mM EDTA, 1 mM DTT, 4% glycerol, 0.02 ug/ul poly(dI-dC), 25 ul, 15 pmol FAM probe, 0 or 200 pmol ParB (competition), 25 C 30; details: protein: recombinant; tags: His tag implied (pET21a, Ni-IDA); chain copies: 2; blunt
T1 sequence: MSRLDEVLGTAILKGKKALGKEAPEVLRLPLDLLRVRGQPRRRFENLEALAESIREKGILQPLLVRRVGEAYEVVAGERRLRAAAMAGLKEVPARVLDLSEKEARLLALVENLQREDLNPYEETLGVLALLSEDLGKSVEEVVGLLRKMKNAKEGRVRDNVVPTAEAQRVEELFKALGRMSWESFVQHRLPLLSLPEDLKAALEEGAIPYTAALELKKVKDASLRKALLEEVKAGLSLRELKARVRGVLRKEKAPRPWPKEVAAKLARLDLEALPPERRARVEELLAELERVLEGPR

ParBc = molecular target: T2, ParBc (Thermus thermophilus HB27, UniProt Q72H91 1-269); assay: as above; details: protein: recombinant; tags: His tag implied (pET21a, Ni-IDA); chain copies: 2; blunt
T2 sequence: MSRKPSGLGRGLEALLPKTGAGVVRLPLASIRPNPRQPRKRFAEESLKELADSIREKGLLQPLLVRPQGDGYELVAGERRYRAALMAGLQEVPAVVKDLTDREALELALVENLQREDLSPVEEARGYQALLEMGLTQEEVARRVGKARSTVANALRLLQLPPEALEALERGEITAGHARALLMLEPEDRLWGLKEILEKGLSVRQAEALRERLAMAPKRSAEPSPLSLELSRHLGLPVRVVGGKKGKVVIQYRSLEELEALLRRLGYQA

B1: WT parSm 18-bp probe (dsDNA)
DNA 1: GCAAGGACGCGTCCTTCA
DNA 2: TGAAGGACGCGTCCTTGC
ParBm
  binding result: binds

B2: WT parSc 25-bp probe (dsDNA)
DNA 1: TGTTTCCCGTGAAACATCAGGCGCC
DNA 2: GGCGCCTGATGTTTCACGGGAAACA
ParBc
  binding result: binds
